Measurements as given in paper PMC5839780 (The Journal of Cell Biology, 2018).

T1: HMmm1s–Mdm12 complex (K. lactis) (Kluyveromyces lactis, UniProt Q6CJU9+Q6CUC3)
T1 sequence (Q6CJU9 179-434): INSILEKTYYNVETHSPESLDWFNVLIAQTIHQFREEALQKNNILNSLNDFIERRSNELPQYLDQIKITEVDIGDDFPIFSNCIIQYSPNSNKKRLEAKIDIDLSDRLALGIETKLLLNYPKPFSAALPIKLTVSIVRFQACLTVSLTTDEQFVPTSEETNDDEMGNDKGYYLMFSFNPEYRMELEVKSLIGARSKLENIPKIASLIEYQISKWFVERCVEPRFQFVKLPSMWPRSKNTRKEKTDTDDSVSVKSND
T1 sequence (Q6CUC3 1-239): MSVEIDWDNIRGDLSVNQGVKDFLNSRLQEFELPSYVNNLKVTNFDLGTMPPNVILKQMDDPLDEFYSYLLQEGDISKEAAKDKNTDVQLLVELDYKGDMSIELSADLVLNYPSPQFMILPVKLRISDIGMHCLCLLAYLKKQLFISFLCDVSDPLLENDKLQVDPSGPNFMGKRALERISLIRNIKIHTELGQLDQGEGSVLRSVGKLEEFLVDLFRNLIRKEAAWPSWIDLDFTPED

T2: N-terminally His6-tagged K. lactis Mmm1s (179–434) V190S (Kluyveromyces lactis, UniProt Q6CJU9 179-434, V190S)
T2 sequence (looked up): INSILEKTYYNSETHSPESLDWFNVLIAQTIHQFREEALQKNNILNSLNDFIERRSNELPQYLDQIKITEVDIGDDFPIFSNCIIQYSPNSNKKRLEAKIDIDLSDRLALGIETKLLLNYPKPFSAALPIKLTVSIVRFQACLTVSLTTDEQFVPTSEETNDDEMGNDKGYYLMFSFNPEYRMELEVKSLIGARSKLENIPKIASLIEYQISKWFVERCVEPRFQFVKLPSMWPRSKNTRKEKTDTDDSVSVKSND

T3: N-terminally His6-tagged K. lactis Mmm1s (179–434) I369S (Kluyveromyces lactis, UniProt Q6CJU9 179-434, I369S)
T3 sequence (looked up): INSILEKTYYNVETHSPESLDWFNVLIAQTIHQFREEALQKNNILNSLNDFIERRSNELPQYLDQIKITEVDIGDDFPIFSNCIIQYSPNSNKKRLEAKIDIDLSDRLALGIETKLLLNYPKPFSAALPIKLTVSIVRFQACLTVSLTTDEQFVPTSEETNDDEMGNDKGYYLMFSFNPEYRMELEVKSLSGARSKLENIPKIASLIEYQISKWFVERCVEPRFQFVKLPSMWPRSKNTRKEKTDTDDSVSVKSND

T4: N-terminally His6-tagged K. lactis Mmm1s (179–434) L274S (Kluyveromyces lactis, UniProt Q6CJU9 179-434, L274S)
T4 sequence (looked up): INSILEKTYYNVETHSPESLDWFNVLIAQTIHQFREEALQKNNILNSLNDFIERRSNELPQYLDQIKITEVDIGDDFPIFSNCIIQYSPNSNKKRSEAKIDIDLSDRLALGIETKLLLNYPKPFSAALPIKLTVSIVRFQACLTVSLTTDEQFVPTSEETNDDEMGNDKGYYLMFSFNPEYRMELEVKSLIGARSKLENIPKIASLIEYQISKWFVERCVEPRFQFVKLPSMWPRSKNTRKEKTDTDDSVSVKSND


Legend:
[1] = molecular target: T1, HMmm1s–Mdm12 complex (K. lactis); assay: NBD dequenching lipid transfer between liposomes; format: biochemical; conditions: 12.5 µM donor and 50 µM acceptor liposomes; pH 7.5; labelled compound
[2] = molecular target: T2, N-terminally His6-tagged K. lactis …; assay: co-purification of a coexpressed complex
[3] = molecular target: T3, N-terminally His6-tagged K. lactis …; assay: co-purification of a coexpressed complex
[4] = molecular target: T4, N-terminally His6-tagged K. lactis …; assay: co-purification of a coexpressed complex

| binding result [2] | binding result [3] | binding result [4] | Molecule | NBD-PS transferred after 10 s [1] |
| --- | --- | --- | --- | --- |
| – | – | – | CCCCCCCC/C=C\CCCCCCCC(=O)OC[C@H](COP(=O)(O)OC[C@H](Nc1ccc([N+](=O)[O-])c2nonc12)C(=O)O)OC(=O)CCCCCCC/C=C\CCCCCCCC [NBD-PS, 1,2-dioleoyl-sn-glycero-3-phospho-L-serine-N-(7-nitro-2-1,3-benzoxadiazol-4-yl)] | Efficiency of NBD-PS transfer between liposomes by HMmm1s–Mdm12 was threefold higher |
| binds | binds | binds | KlMdm12 (residues 1–239 of K. lactis Mdm12), nontagged (domain or fragment, Kluyveromyces lactis, UniProt Q6CUC3 1-239, looked up) MSVEIDWDNIRGDLSVNQGVKDFLNSRLQEFELPSYVNNLKVTNFDLGTMPPNVILKQMDDPLDEFYSYLLQEGDISKEAAKDKNTDVQLLVELDYKGDMSIELSADLVLNYPSPQFMILPVKLRISDIGMHCLCLLAYLKKQLFISFLCDVSDPLLENDKLQVDPSGPNFMGKRALERISLIRNIKIHTELGQLDQGEGSVLRSVGKLEEFLVDLFRNLIRKEAAWPSWIDLDFTPED | – |
